Results from IntAct's records for PubMed 31515488.

B1: Mothers against decapentaplegic homolog 4 (Homo sapiens), Q13485 (parent)
chain: MDNMSITNTPTSNDACLSIVHSLMCHRQGGESETFAKRAIESLVKKLKEKKDELDSLITAITTNGAHPSKCVTIQRTLDGRLQVAGRKGFPHVIYARLWRWPDLHKNELKHVKYCQYAFDLKCDSVCVNPYHYERVVSPGIDLSGLTLQSNAPSSMMVKDEYVHDFEGQPSLSTEGHSIQTIQHPPSNRASTETYSTPALLAPSESNATSTANFPNIPVASTSQPASILGGSHSEGLLQIASGPQPGQQQNGFTGQPATYHHNSTTTWTGSRTAPYTPNLPHHQNGHLQHHPPMPPHPGHYWPVHNELAFQPPISNHPAPEYWCSIAYFEMDVQVGETFKVPSSCPIVTVDGYVDPSGGDRFCLGQLSNVHRTEAIERARLHIGKGVQLECKGEGDVWVRCLSDHAVFVQSYYLDREAGRAPGDAVHKIYPSAYIKVFDLRQCHRQMQQQAATAQAAAAAQAAAVAGNIPGPGSVGGIAPAISLSAAAGIGVDDLRRLCILRMSFVKGWGPDYPRQSIKETPCWIEIHLHRALQLLDEVLHTMPIADPQPLD

Variants of: B1
Settings: with smad9_human SMAD9, O15198
Sequence of smad9_human SMAD9, O15198 (O15198 whole entry): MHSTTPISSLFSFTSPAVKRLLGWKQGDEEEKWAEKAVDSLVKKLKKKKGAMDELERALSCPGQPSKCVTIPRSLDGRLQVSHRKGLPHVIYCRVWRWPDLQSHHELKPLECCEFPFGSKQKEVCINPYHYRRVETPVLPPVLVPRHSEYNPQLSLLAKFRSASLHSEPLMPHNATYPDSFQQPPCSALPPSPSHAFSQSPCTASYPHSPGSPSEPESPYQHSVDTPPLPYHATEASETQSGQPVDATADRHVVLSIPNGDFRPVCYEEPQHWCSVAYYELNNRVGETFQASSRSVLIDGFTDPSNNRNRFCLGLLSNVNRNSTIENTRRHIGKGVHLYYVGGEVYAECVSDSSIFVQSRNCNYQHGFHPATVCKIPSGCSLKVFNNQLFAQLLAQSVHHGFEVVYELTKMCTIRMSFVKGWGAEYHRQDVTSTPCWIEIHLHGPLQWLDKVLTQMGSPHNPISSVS

effect of a mutation on the interaction	Variant
disrupting interaction strength	E330K
disrupting interaction strength	Y353S
with no effect	N13S
disrupting interaction strength	G352R
disrupting interaction strength	L533R
disrupting interaction strength	V350D

Variants of: B1
Settings: with smad3_human SMAD3, P84022
Sequence of smad3_human SMAD3, P84022 (P84022 whole entry, looked up): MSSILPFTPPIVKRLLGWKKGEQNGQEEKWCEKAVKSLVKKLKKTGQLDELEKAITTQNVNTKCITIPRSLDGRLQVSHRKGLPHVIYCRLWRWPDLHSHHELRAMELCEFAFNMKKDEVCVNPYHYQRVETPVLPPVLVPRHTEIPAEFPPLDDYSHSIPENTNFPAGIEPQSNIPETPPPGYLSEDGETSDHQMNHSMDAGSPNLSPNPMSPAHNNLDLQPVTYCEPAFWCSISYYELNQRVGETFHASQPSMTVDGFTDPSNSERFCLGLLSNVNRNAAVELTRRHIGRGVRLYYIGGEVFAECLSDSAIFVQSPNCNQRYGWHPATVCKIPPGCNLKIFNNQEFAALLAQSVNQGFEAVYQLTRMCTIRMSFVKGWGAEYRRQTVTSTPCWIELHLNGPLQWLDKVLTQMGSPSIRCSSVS

Variant	effect of a mutation on the interaction
E330K	disrupting interaction strength
D355N	disrupting interaction strength
M294V	with no effect
L533F	disrupting interaction strength
R76I	with no effect

Other lines, results leading:

effect of a mutation on the interaction	Variant
disrupting interaction strength	Y353S
with no effect	V407L
with no effect	N13S
disrupting interaction strength	G352R
disrupting interaction strength	L533R
with no effect	R189C
disrupting interaction strength	V539G
disrupting interaction strength	V350D

Variants of: B1
Settings: with ews_human EWSR1, Q01844
Sequence of ews_human EWSR1, Q01844 (Q01844 whole entry): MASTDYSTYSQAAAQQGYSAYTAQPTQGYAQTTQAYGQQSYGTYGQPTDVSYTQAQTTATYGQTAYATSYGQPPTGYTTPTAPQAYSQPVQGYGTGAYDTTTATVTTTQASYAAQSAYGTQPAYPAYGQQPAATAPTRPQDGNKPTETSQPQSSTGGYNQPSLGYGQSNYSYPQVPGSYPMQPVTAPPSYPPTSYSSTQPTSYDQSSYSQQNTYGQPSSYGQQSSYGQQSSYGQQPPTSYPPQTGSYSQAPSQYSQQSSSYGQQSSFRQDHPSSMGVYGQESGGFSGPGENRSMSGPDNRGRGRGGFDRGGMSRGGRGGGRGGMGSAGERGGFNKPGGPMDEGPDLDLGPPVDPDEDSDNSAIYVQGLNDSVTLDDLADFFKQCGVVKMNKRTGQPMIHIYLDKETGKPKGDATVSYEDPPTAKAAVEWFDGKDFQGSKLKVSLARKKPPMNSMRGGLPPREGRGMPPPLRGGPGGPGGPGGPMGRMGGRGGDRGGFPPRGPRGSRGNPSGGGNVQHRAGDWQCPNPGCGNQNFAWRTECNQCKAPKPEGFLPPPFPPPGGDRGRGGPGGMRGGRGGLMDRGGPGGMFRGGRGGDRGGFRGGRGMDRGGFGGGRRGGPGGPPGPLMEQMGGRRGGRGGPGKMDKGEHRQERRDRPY

Variant	effect of a mutation on the interaction
D355N	with no effect
L533F	with no effect
R76I	with no effect

Further lines, results first:

effect of a mutation on the interaction	Variant
with no effect	R189C
disrupting interaction strength	V539G
